Experimental data: the supplement of paper PMC9170038

Test system: MS2 coat protein
Assay: apparent KD of MS2 coat protein; designed switch direction (-1 OFF switch, 1 ON switch): -1; higher = weaker reporter binding
How it was run: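 The reported apparent KD is a per-design median over clusters, from curve fits of normalised cluster fluorescence. Protein titrations used SNAP-549-labelled MS2 coat protein, doubled from 0.7 or 1.5 nM to 3 µM, in Tris-HCl pH 7.5 buffer with KCl, MgCl2, BSA, DTT, tRNA and Tween-20, with no input, 200 uM small-molecule ligand, or an oligonucleotide input. The RNA switches were transcribed on Illumina chips by stalled E. coli RNA polymerase.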

[1] = input ligand: microRNA oligo, concentration not stated
[2] = Eterna round: R95, input ligand: FMN 200 uM
[3] = Eterna round: R95, input ligand: microRNA oligo, concentration not stated
[4] = Eterna round: R95, input ligand: none

| Sequence | apparent KD of MS2 coat protein (input ligand: FMN 200 uM) [nM] | apparent KD of MS2 coat protein (input ligand: none) [nM] | apparent KD of MS2 coat protein [1] [nM] | apparent KD of MS2 coat protein [2] [nM] | apparent KD of MS2 coat protein [3] [nM] | apparent KD of MS2 coat protein [4] [nM] |
| --- | --- | --- | --- | --- | --- | --- |
| CUGUGCACGCUGCGGUCCUACAUGAGGAUCACCCAUGUGGUCUGGUGGCGUGGGUCACCGGACUUGGCUCGUCUUGG [salish99_S_TOV1_R5_063] (Eterna round: R97, puzzle: Sensor, turn-off variant 1) | 22 | 23 | – | – | – | – |
| CUGUUUUCCGCAGGAUAUGCUCCUCCAUUAUUAGCAGAAGGGCGUUGAACAUGAGGAUCACCCAUGUAUGUAAUUGAUUAUUGC [JR_ExcNG1_Sub071] (Eterna round: R96, puzzle: Exclusion NG 1) | 54.3 | 36.3 | 26.3 | – | – | – |
| CUGUUUUCCGCAGGAUAUGCUCCUCCAUUAUUUGCAGAAGGGCGUUGAACAUGAGGAUCACCCAUGUAUGUAAUUGAUUAUUGC [JR_ExcNG1_Sub070] (Eterna round: R96, puzzle: Exclusion NG 1) | 27.7 | 33.8 | 27.5 | – | – | – |
| CUUAAUUGUGACAUGGGUGACAUGAGGAUCACCCAUGUCACAAGCUUUUUGUUCGUCUUAUAAUUAACCCAUGUCAC [Stov1/13-B3] (Eterna round: R97, puzzle: Sensor, turn-off variant 1) | 44.9 | 52.7 | – | – | – | – |
| CUUAGACAUGAGGAUCACCCAUGUGAGGAUAUGAUACAAUCAUACUAACAUAAUCACAUCAGAAGGCACAUAUG [Mat - Mod of JL D68] (puzzle: Exclusion 1) | – | – | – | 34.6 | 55.8 | 52.4 |
| CUUAGACAUGAGGAUCACCCAUGUGAGGAUAUGAUGAGGAUAAGGAAGGAAGAAGGAAUCAGAAGGCACAUAUG [Mat - Mod of Hyphema D27] (puzzle: Exclusion 1) | – | – | – | 102 | 69.4 | 74.2 |
| CUUAGACAUGAGGAUCACCCAUGUGAGGAUAUGAUGCGAAUAAGGAAGGAAGAAAGCAUCAGAAGGCACAUAUG [Mat - Mod of Hyphema D25] (puzzle: Exclusion 1) | – | – | – | 161 | 139 | 104 |
| CUUCGACAUGAGGAUCACCCAUGUCAGGAUAUUGUGUAUCUGGUUUUUUACAGAUAGACAAGAAGGGAUGUGUU [LRO-Excl1-01] (puzzle: Exclusion 1) | – | – | – | – | 25.2 | – |
| CUUGUCCGAGGAUAUAUUUUGUGAUACAUGAGGAUCACCCAUGUUAUAAGAUGGAUAUAAAUAGAAGGCGGACGAG [Mat - Exclusion 5 - JL mod - D69] (puzzle: Exclusion 5) | – | – | – | 35.7 | 44 | 47 |
| CUUGUGUAAGGAUAUGCCUGGCCGUGAGGCCAGAUUGAAUAGCAGAAGGUACAUGAGGAUCACCCAUGUACGGG [jl-ex4-4.60 ViennaUCT mod] (Eterna round: R97, puzzle: Exclusion 4) | 256 | 376 | – | – | – | – |
| CUUGUGUGAGGAUAUGAAUUGCCUGGACAUACAGGCUCCUGUCAGAAGGCACAUGAGGAUCACCCAUGUGGGCA [Andiriso] (Eterna round: R97, puzzle: Exclusion 4) | 98.1 | 411 | – | – | – | – |
| CUUGUUUAUGUAGGAUAUGCCUGGCGUGCCUUUGCAGAAGGACAUGAGGAUCACCCAUGUAACAUGAGGCUUACCCUUGUCGCC [salish99_ExNG1_r04_119] (Eterna round: R96, puzzle: Exclusion NG 1) | 80.6 | 68.9 | 56.1 | – | – | – |
| CUUGUUUAUGUAGGAUAUGCCUGGCGUGCCUUUGCAGAAGGACAUGAGGAUCACCCAUGUGGUAUGAGGCUUACCCUUGUCGCC [salish99_ExNG1_r04_121] (Eterna round: R96, puzzle: Exclusion NG 1) | 30.6 | 28.9 | 21.1 | – | – | – |
| CUUUCGUCUGUGGGUGGUGACAUGAGGAUCACCCAUGUUUUGCUCGUCUUGUCCCGGGCCCGGCGCCCGGGCCCGGG [-38.7, -62.5, A 8%] (Eterna round: R97, puzzle: Sensor, turn-off variant 1) | 1210 | 1340 | – | – | – | – |
| CUUUUGUGAGGAUAUCAGUAGUAAAAAAAUAAAAUUACUACUUAGAAGGCACAUGAGGAUCACCCAUGUUCCUC [salish99_ex4_r3_030] (puzzle: Exclusion 4) | – | – | – | – | 25.4 | – |
| CUUUUGUGAGGAUAUCAGUAGUAAAAAAAUAAUAUUACUACUGAGAAGGCACAUGAGGAUCACCCAUGUUCCUC [salish99_ex4_r3_024] (puzzle: Exclusion 4) | – | – | – | – | 38.4 | – |
| CUUUUGUGAGGAUAUCAGUAGUAAAUAAAUAAAAUUACUAUUGAGAAGGCACAUGAGGAUCACCCAUGUUCCUC [salish99_ex3_r3_088] (puzzle: Exclusion 4) | – | – | – | – | 33.9 | – |
| CUUUUGUGAGGAUAUCAGUAGUAAAUAAAUAAAAUUUCUACUGAGAAGGCACAUGAGGAUCACCCAUGUUCCUC [salish99_ex3_r3_085] (puzzle: Exclusion 4) | – | – | – | – | 36.3 | – |

| Sequence | apparent KD of MS2 coat protein (input ligand: FMN 200 uM) [nM] | apparent KD of MS2 coat protein (input ligand: none) [nM] | apparent KD of MS2 coat protein [1] [nM] | apparent KD of MS2 coat protein [2] [nM] | apparent KD of MS2 coat protein [3] [nM] | apparent KD of MS2 coat protein [4] [nM] |
| --- | --- | --- | --- | --- | --- | --- |
| CUUUUGUGAGGAUAUCAGUAGUAAUAAAAUAAAAUAACUACUGAGAAGGCACAUGAGGAUCACCCAUGUUCCUC [Mat - Exclusion 4 - Mod of Salish - D72] (puzzle: Exclusion 4) | – | – | – | – | 30 | – |
| CUUUUGUGAGGAUAUCAGUAUUAAAUAAAUAAAAUUACUACUGAGAAGGCACAUGAGGAUCACCCAUGUUCCUC [salish99_ex3_r3_074] (puzzle: Exclusion 4) | – | – | – | – | 37.5 | – |
| CUUUUGUGAGGAUAUCUGUAGUAAAAAAAUAAAAUUACUACUGAGAAGGCACAUGAGGAUCACCCAUGUUCCUC [salish99_ex4_r3_035] (puzzle: Exclusion 4) | – | – | – | – | 34 | – |
| CUUUUGUGAGGAUAUUAGUAGUAAAUAAAUAUAAUUACUACUGAGAAGGCACAUGAGGAUCACCCAUGUUCCUC [salish99_ex4_r3_058] (puzzle: Exclusion 4) | – | – | – | – | 35.5 | – |
| CUUUUGUGAGGAUAUUCAUAGUAGGGUCAUGGCAUUAUUAUGAAGAAGGCACAUGAGGAUCACCCAUGUACCUU [EX4 #49] (Eterna round: R97, puzzle: Exclusion 4) | 32.8 | 21.5 | – | – | – | – |
| CUUUUUUUUGUGAGGAUAUACUGUUAUUAAAGUUAGUAGAAGGUACAUGAGGAUCACCCAUGUUAAUUACUCUA [JR_BME4_Sub049] (puzzle: Brourd's mod of Exclusion 4) | – | – | – | – | 14.2 | – |
| GAAAACCGGUGAGGAUAUUUAUAAUAGAGCUUUAUGAUAUACAUGAGGAUCACCCAUGUUACUUUAAAGAAGGCAUCGGAAAAG [Mat - Exclusion NG 2 - Mod of JL - D94] (Eterna round: R96, puzzle: Exclusion NG 2) | 19.1 | 18.9 | 12.5 | – | – | – |
| GAAAACGCAGAGGAUAUAUCAGAUCAAAGCUGCAUAGAAGGCUGCACAUGAGGAUCACCCAUGUGGUCUUCAAU [Mat - Exclusion 6 - JL Mod - D5] (Eterna round: R97, puzzle: Exclusion 6) | 282 | 23.8 | – | – | – | – |
| GAAAACGUAGGAUAUACGAAAAAAAAGGGUAGAAAAAAAACACAUGAGGAUCACCCAUGUAGAAGGACGAAAAG [salish99_ex2_r3_094] (puzzle: Exclusion 2) | – | – | – | 66.3 | 38.9 | 55.4 |
| GAAAAGGUAGAGGAUAUUUCAGAUCAAAGCUGCAAAGAAGGCUGCACAUGAGGAUCACCCAUGUGGUCUUAAAA [Mod of Quesina 8 - Jieux - Exclusion 6] (Eterna round: R97, puzzle: Exclusion 6) | 62.3 | 20.9 | – | – | – | – |
| GAAAAGGUAGGAUAUACGAAAAAAAAGGAUAGAAAAAAAACACAUGAGGAUCACCCAUGUAGAAGGACCAAAAG [salish99_ex2_r3_066] (puzzle: Exclusion 2) | – | – | – | 35.2 | 25.5 | 23.3 |
| GAAAAGGUAGGAUAUACGAAAAAAAAGGGUAGAAAAAAAACACAUGAGGAUCACCCAUGUAGAAGGACCAAAGG [salish99_ex2_r3_040] (puzzle: Exclusion 2) | – | – | – | 46.3 | 28.5 | 26 |
| GAAAAGGUAGGAUAUACGAAAAAAAAGGGUAGAAAAAAAACACAUGAGGAUCACCCAUGUAGAAGGGCCAAAAG [salish99_ex2_r3_032] (puzzle: Exclusion 2) | – | – | – | 40.2 | 34 | 45.3 |
| GAAAAGGUAGGAUAUACGAAAAAAAAGGGUAGAAAAAAAAUACAUGAGGAUCACCCAUGUAGAAGGACCAAAAG [salish99_ex2_r3_060] (puzzle: Exclusion 2) | – | – | – | 24.4 | 23.3 | 22.5 |
| GAAAAGGUAGGAUAUACGAAAAAAAAGGGUAGAAUAAAAACACAUGAGGAUCACCCAUGUAGAAGGACCAAAAG [salish99_ex2_r3_077] (puzzle: Exclusion 2) | – | – | – | 80.4 | 31.8 | 28.9 |
| GAAAUCGAAGGAUAUCCGGGUGUCCACAUGAGGAUCACCCAUGUACUGGCCAAUAGCCAGGGAGAAGGUCGCCCAA [EX5 A.3] (Eterna round: R97, puzzle: Exclusion 5) | 131 | 104 | – | – | – | – |
| GAAGAGUGAGGAUAUACAUGAGGAUCACCCAUGUUAACCUUCUACAGCAUGGACUCGAGUAGAAGGCGCCAAGA [Eternabot (Original) Solution 21] (Eterna round: R97, puzzle: Exclusion 3) | 20.3 | 25.8 | – | – | – | – |
